Numbered stars: 1 amine (or outer) side, 2 acyl side, 3 side chain; on linkers, the order of the positions; unused ones are H or OH. Bridge positions count the residues as written; N and C are the ends. Square brackets hold non-standard residues; d marks the D form. Ends that are not written are not given here. * marks the point of attachment. X13 = (2S)‑2‑amino‑3‑(1-methylcyclopropyl)propanoic acid, CC1(C[C@H](N[*:1])C(=O)[*:2])CC1; X15 = (3S)‑2‑azaspiro(4.4)nonane‑3‑carboxylic acid, O=C([C@@H]1CC2(CCCC2)CN1[*:1])[*:2]; X14 = (2,4-dioxoimidazolidin-1-yl)acetic acid, O=C1CN(CC(=O)*)C(=O)N1; Ida = iminodiacetic acid, O=C(CN(CC(=O)[*:3])[*:1])[*:2]; Pro(4-spirocPr) = O=C(O)[C@@H]1CC2(CC2)CN1; Oic = O=C(O)[C@@H]1C[C@@H]2CCCC[C@@H]2N1; βPro(3R) = O=C([C@@H]1CCN([*:1])C1)[*:2]; tBuAla = CC(C)(C)C[C@H](N)C(=O)O; Pen = CC(C)(S)[C@H](N)C(=O)O; Sar = CNCC(=O)O
T1: Recombinant human MASP1 enzyme (fragment corresponding to amino acids 297-699, C-terminal His Tag) (human, UniProt P48740 297-699)
T1 sequence: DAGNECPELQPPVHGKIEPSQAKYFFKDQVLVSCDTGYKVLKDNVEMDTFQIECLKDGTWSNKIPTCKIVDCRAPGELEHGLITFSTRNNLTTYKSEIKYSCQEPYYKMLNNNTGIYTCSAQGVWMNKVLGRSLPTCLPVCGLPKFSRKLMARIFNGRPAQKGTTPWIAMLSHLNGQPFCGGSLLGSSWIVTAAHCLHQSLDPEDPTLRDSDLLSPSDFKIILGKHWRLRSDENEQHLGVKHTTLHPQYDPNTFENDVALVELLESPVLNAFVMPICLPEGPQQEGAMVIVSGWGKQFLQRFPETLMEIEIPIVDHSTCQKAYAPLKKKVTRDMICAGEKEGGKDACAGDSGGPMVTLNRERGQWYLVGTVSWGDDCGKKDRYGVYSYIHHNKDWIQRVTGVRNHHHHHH

B1: ((N-Me)G)-FC+TRK-((tBu)A)-(Pen)+YPD-OH (peptide)
peptide: [Sar]FCTRK[tBuAla][Pen]YPD-OH
modifications: disulfide 3-8; N-terminus assumed
SMILES: CNCC(=O)N[C@@H](Cc1ccccc1)C(=O)N[C@H]1CSSC(C)(C)[C@@H](C(=O)N[C@@H](Cc2ccc(O)cc2)C(=O)N2CCC[C@H]2C(=O)N[C@@H](CC(=O)O)C(=O)O)NC(=O)[C@H](CC(C)(C)C)NC(=O)[C@H](CCCCN)NC(=O)[C@H](CCCNC(=N)N)NC(=O)[C@H]([C@@H](C)O)NC1=O
B2: aIC+SRS-((tBu)A)-P-((6S)-5-Azaspiro[2.4]heptane-6-carboxylic acid)-I-(Pen)+IPe-OH (peptide)
peptide: [dA]ICSRS[tBuAla]P[Pro(4-spirocPr)]I[Pen]IP[dE]-OH
modifications: disulfide 3-11; N-terminus assumed
SMILES: CC[C@H](C)[C@H](NC(=O)[C@@H](C)N)C(=O)N[C@H]1CSSC(C)(C)[C@@H](C(=O)N[C@H](C(=O)N2CCC[C@H]2C(=O)N[C@H](CCC(=O)O)C(=O)O)[C@@H](C)CC)NC(=O)[C@H]([C@@H](C)CC)NC(=O)[C@@H]2CC3(CC3)CN2C(=O)[C@@H]2CCCN2C(=O)[C@H](CC(C)(C)C)NC(=O)[C@H](CO)NC(=O)[C@H](CCCNC(=N)N)NC(=O)[C@H](CO)NC1=O
B3: ((N-Me)G)-IC+SRS-((2S)-2-amino-3-(1-methylcyclopropyl)propanoic acid)-P-(Oic)-I-(Pen)+IPD-OH (peptide)
peptide: [Sar]ICSRS[X13]P[Oic]I[Pen]IPD-OH
modifications: disulfide 3-11; N-terminus assumed
SMILES: CC[C@H](C)[C@H](NC(=O)CNC)C(=O)N[C@H]1CSSC(C)(C)[C@@H](C(=O)N[C@H](C(=O)N2CCC[C@H]2C(=O)N[C@@H](CC(=O)O)C(=O)O)[C@@H](C)CC)NC(=O)[C@H]([C@@H](C)CC)NC(=O)[C@@H]2C[C@@H]3CCCC[C@@H]3N2C(=O)[C@@H]2CCCN2C(=O)[C@H](CC2(C)CC2)NC(=O)[C@H](CO)NC(=O)[C@H](CCCNC(=N)N)NC(=O)[C@H](CO)NC1=O
B4: ((N-Me)G)-IC+SRS-((tBu)A)-P-((3S)-2-azaspiro[4.4]nonane-3-carboxylic acid)-I-(Pen)+IPD-OH (peptide)
peptide: [Sar]ICSRS[tBuAla]P[X15]I[Pen]IPD-OH
modifications: disulfide 3-11; N-terminus assumed
SMILES: CC[C@H](C)[C@H](NC(=O)CNC)C(=O)N[C@H]1CSSC(C)(C)[C@@H](C(=O)N[C@H](C(=O)N2CCC[C@H]2C(=O)N[C@@H](CC(=O)O)C(=O)O)[C@@H](C)CC)NC(=O)[C@H]([C@@H](C)CC)NC(=O)[C@@H]2CC3(CCCC3)CN2C(=O)[C@@H]2CCCN2C(=O)[C@H](CC(C)(C)C)NC(=O)[C@H](CO)NC(=O)[C@H](CCCNC(=N)N)NC(=O)[C@H](CO)NC1=O
B5: ((2,4-dioxoimidazolidin-1-yl)acetic acid)-IC+SRSLP-(Oic)-I-(Pen)+IPD-OH (peptide)
peptide: X14-ICSRSLP[Oic]I[Pen]IPD-OH
modifications: disulfide 2-10
SMILES: CC[C@H](C)[C@H](NC(=O)CN1CC(=O)NC1=O)C(=O)N[C@H]1CSSC(C)(C)[C@@H](C(=O)N[C@H](C(=O)N2CCC[C@H]2C(=O)N[C@@H](CC(=O)O)C(=O)O)[C@@H](C)CC)NC(=O)[C@H]([C@@H](C)CC)NC(=O)[C@@H]2C[C@@H]3CCCC[C@@H]3N2C(=O)[C@@H]2CCCN2C(=O)[C@H](CC(C)C)NC(=O)[C@H](CO)NC(=O)[C@H](CCCNC(=N)N)NC(=O)[C@H](CO)NC1=O
B6: ((N-Me)G)-IC+SRSLP-(Oic)-I-(Pen)+IP-((R)-Pyrrolidine-3-carboxylic acid)-OH (peptide)
peptide: [Sar]ICSRSLP[Oic]I[Pen]IP[βPro(3R)]-OH
modifications: disulfide 3-11; N-terminus assumed
SMILES: CC[C@H](C)[C@H](NC(=O)CNC)C(=O)N[C@H]1CSSC(C)(C)[C@@H](C(=O)N[C@H](C(=O)N2CCC[C@H]2C(=O)N2CC[C@@H](C(=O)O)C2)[C@@H](C)CC)NC(=O)[C@H]([C@@H](C)CC)NC(=O)[C@@H]2C[C@@H]3CCCC[C@@H]3N2C(=O)[C@@H]2CCCN2C(=O)[C@H](CC(C)C)NC(=O)[C@H](CO)NC(=O)[C@H](CCCNC(=N)N)NC(=O)[C@H](CO)NC1=O

molecular target: Recombinant human MASP2 enzyme (fragment corresponding to amino acids 297-686, C-terminal His Tag) (human, UniProt O00187 297-686); experiment: cell-based or functional assay
Sequence (O00187 other isoform, or with tags, fused parts or gaps limits assumed): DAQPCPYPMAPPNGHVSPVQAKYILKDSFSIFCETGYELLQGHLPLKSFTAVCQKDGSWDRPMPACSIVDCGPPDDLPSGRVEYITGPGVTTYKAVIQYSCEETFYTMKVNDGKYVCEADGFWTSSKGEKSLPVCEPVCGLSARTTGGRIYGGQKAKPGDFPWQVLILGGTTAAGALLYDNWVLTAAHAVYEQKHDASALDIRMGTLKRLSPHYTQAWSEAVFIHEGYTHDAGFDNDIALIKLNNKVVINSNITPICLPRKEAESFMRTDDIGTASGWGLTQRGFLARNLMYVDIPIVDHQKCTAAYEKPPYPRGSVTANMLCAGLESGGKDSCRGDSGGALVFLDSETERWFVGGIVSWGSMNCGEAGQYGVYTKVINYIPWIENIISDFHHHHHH

Point of comparison: B2, “human MASP2 IC50” value 24 nM. Against it:
- B1 — 42-fold higher, 1000 nM
- B3 — 9.6-fold higher, 230 nM
- [dP]ICSRSLP[Oic]I[Pen]IP[Ida]-OH (disulfide 3-11; also: HCl salt) [pIC+SRSLP-(Oic)-I-(Pen)+IP-(Ida)-OH (HCl salt)] — 2.7-fold higher, 65 nM
- B4 — 11-fold higher, 261 nM
- B5 — 1.9-fold higher, 45 nM
- B6 — 6.9-fold higher, 166 nM

molecular target: T1, Recombinant human MASP1 enzyme …; experiment: cell-based or functional assay

Point of comparison: [dP]ICSRSLP[Oic]I[Pen]IP[Ida]-OH (disulfide 3-11; also: HCl salt) [pIC+SRSLP-(Oic)-I-(Pen)+IP-(Ida)-OH (HCl salt)], “human MASP1 IC50” value 7.5 nM. Against it:
- B1 — 130-fold higher, 1000 nM
- B2 — 1.7-fold lower, 4.4 nM
- B3 — 2.7-fold higher, 20 nM
- B4 — 2.3-fold higher, 17.1 nM
- B5 — 2.3-fold higher, 17 nM
- B6 — 3.7-fold higher, 28 nM
